# Laboratory results taken from paper PMC10200994.
# B1: STAT1 (unphosphorylated, wild-type), fluorophore fusion, P42224 1-750 (natural protein)
# chain: MSQWYELQQLDSKFLEQVHQLYDDSFPMEIRQYLAQWLEKQDWEHAANDVSFATIRFHDLLSQLDDQYSRFSLENNFLLQHNIRKSKRNLQDNFQEDPIQMSMIIYSCLKEERKILENAQRFNQAQSGNIQSTVMLDKQKELDSKVRNVKDKVMCIEHEIKSLEDLQDEYDFKCKTLQNREHETNGVAKSDQKQEQLLLKKMYLMLDNKRKEVVHKIIELLNVTELTQNALINDELVEWKRRQQSACIGGPPNACLDQLQNWFTIVAESLQQVRQQLKKLEELEQKYTYEHDPITKNKQVLWDRTFSLFQQLIQSSFVVERQPCMPTHPQRPLVLKTGVQFTVKLRLLVKLQELNYNLKVKVLFDKDVNERNTVKGFRKFNILGTHTKVMNMEESTNGSLAAEFRHLQLKEQKNAGTRTNEGPLIVTEELHSLSFETQLCQPGLVIDLETTSLPVVVISNVSQLPSGWASILWYNMLVAEPRNLSFFLTPPCARWAQLSEVLSWQFSSVTKRGLNVDQLNMLGEKLLGPNASPDGLIPWTRFCKENINDKNFPFWLWIESILELIKKHLLPLWNDGCIMGFISKERERALLKDQQPGTFLLRFSESSREGAITFTWVERSQNGGEPDFHAVEPYTKKELSAVTFPDIIRNYKVMAAENIPENPLKYLYPNIDKDHAFGKYYSRPKEAPEPMELDGPKGTGYIKTELISVSEVHPSRLQTTDNLLPMSPEEFDEVSRIVGSVEFDSMMNTV
# Molecular target: T1, STAT1 (unphosphorylated, wild-type), fluorophore fusion, P42224
# T1 chain: B1 chain
# Assay: co-localization assay (relocalisation of a test protein by a compartment-targeted bait, fluorescence microscopy); HeLa cells co-expressing bait (STAT-NES or STAT-NLS, or wild-type STAT2 with its own export activity; green) and test protein without heterologous signal (red); no cytokine; fixed 20 h after transfection; Pearson correlation coefficient rP in cells with equimolar to 4-fold excess of bait
# Conditions: remark: other sources report otherwise
binder,measurement,value
B1,Pearson correlation coefficient rP (co-localization),> 0.94
